Here are results for 38 sequences from the supplement of paper PMC9732359.

± gives the uncertainty stated by the source.

This data set in a line: protein stability index of a GFP-peptide fusion (yeast GPS) (PSI 1-4); higher = more stable; sorted into four equal gates, so the index is relative within each strain. A digest of the protocol: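 Tiled 17-residue peptides from yeast proteins were fused downstream of GFP on a plasmid that also expresses Cherry, and the pooled library was carried in yeast. Mid-log cultures grown in leucine-free medium were sorted into four equal gates by GFP/Cherry fluorescence ratio. Plasmids from each gate were PCR-amplified and Illumina-sequenced, and reads were assigned to strains by barcodes. Each peptide's protein stability index is the sum, over gates, of the gate's read frequency multiplied by its gate number.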

For the sequence TMTMDVFNDAHVLNKVT [RPN1], the protein stability index is, setting by setting: (doa10∆) 2.26 ± 0.065; (pdr5∆) 2.25 ± 0.053; (san1∆) 2.4 ± 0.073; (ubr1∆) 2.25 ± 0.045.
As for TMTYEEVAKRLVELMFI [FAS1], the protein stability index came to 1.79 ± 0.067 (doa10∆), 2.22 ± 0.071 (pdr5∆), 2.52 ± 0.084 (san1∆) and 2.14 ± 0.069 (ubr1∆).
In the same order, the values of TNAAFPFHDPEARLFNI [ECM29] are 3.04 ± 0.1, 2.87 ± 0.12, 2.42 ± 0.11 and 2.38 ± 0.072.
In the case of TNGNNAGGGSNKSSVRP [MED6], the protein stability index is, setting by setting: (doa10∆) 3.19 ± 0.14; (pdr5∆) 3.47 ± 0.097; (san1∆) 2.77 ± 0.1; (ubr1∆) 3.11 ± 0.088.
For the sequence TNIHEPQYINYSSIPSL [SSN2], the protein stability index was 2.89 ± 0.23 (doa10∆) and 2.46 ± 0.14 (pdr5∆).
As to TNKGPLAQIWLASNMSN [MCD1], the protein stability index reads like this: (doa10∆) 2.33 ± 0.096; (pdr5∆) 1.26 ± 0.054; (san1∆) 1.26 ± 0.2; (ubr1∆) 1.17 ± 0.056.
For the sequence TNKLLFKRVSQTFEAKL [NUT1], the protein stability index was 1.78 ± 0.048 (doa10∆), 1.7 ± 0.046 (pdr5∆), 1.74 ± 0.087 (san1∆) and 1.83 ± 0.04 (ubr1∆).
In the case of TNTHPNFLSKIRNINVQ [SNF2], the protein stability index amounted to 1.44 ± 0.049 (doa10∆), 1.68 ± 0.063 (pdr5∆), 1.49 ± 0.09 (san1∆) and 1.34 ± 0.031 (ubr1∆).
With TPDPSELAAKEEPAKEE [FAS2], the protein stability index came to 2.718 ± 0.024 (doa10∆), 2.821 ± 0.024 (pdr5∆), 2.693 ± 0.026 (san1∆) and 2.684 ± 0.019 (ubr1∆).
In the same order, the values of TPDTKNFFHAKKKDPVN [SNF12] are 3.29 ± 0.097, 2.97 ± 0.079, 3.1 ± 0.068 and 3.17 ± 0.1.
In the same order, the values of TPEKDLFIGLFTRPLFV [YCS4] are 1.54 ± 0.084, 1.32 ± 0.079, 1.96 ± 0.27 and 1.45 ± 0.096.
As to TPMTRISELPPQIRQEI [YGL172W/NUP49], the protein stability index (doa10∆) came out at 2.84 ± 0.074, the protein stability index (pdr5∆) came out at 3.11 ± 0.055, the protein stability index (san1∆) turned out to be 2.65 ± 0.051 and the protein stability index (ubr1∆) amounted to 2.86 ± 0.043.
On to TPPVVVVGVVGYVETPR [RPL3], for which the protein stability index came out at 1.81 ± 0.086 (doa10∆), 2.33 ± 0.068 (pdr5∆), 1.46 ± 0.072 (san1∆) and 2.86 ± 0.17 (ubr1∆).
In the same order, the values of TPSDLSESGSKLNVDQF [POP1] are 3.46 ± 0.098, 3.4 ± 0.094, 3.19 ± 0.072 and 3.21 ± 0.1.
On to TPSFSFGAKSDENKAGA [YJL041W/NSP1], for which the protein stability index is, setting by setting: (doa10∆) 3.51 ± 0.28; (pdr5∆) 3.19 ± 0.16; (san1∆) 3.17 ± 0.15.
For the sequence TQAIADIVQYHLELYTS [PRE3], the protein stability index is, setting by setting: (doa10∆) 2.07 ± 0.064; (pdr5∆) 1.72 ± 0.057; (san1∆) 1.77 ± 0.069; (ubr1∆) 2.01 ± 0.042.
As to TQDESEIKDAETSCDNY [SMC4], the protein stability index is 2.26 ± 0.083 (doa10∆), 2.62 ± 0.073 (pdr5∆), 3.4 ± 0.056 (san1∆) and 2.98 ± 0.053 (ubr1∆).
In the same order, the values of TQEFSKNYTTETDNEMN [SIR3] are 3.31 ± 0.12, 3.49 ± 0.064, 3.64 ± 0.075 and 3.29 ± 0.055.
In the case of TQKDSARVSPRNNVANK [YAR002W/NUP60], the protein stability index was 3.22 ± 0.1 (doa10∆), 3.52 ± 0.12 (pdr5∆), 3.23 ± 0.096 (san1∆) and 3.02 ± 0.072 (ubr1∆).
For TQKRLAASVVGVGKRKV [RPL19A], the protein stability index runs as follows: (doa10∆) 1.33 ± 0.1; (pdr5∆) 1.32 ± 0.16; (san1∆) 1.13 ± 0.11; (ubr1∆) 1.79 ± 0.11.
On to TQLDKLRPRKDSKDGTT [SMB1], for which the protein stability index was found to be 2.26 ± 0.28 (doa10∆), 2.15 ± 0.28 (pdr5∆) and 1.77 ± 0.2 (ubr1∆).
As to TQLKKRAVSGVELRIYV [POP7], the protein stability index is, setting by setting: (doa10∆) 2.66 ± 0.13; (pdr5∆) 2.23 ± 0.11; (san1∆) 2.44 ± 0.14; (ubr1∆) 2.78 ± 0.16.
TQVRVEFLEDTSRTIVR [RPS28A]: the protein stability index is, setting by setting: (doa10∆) 3.37 ± 0.24; (pdr5∆) 3.06 ± 0.13; (san1∆) 2.91 ± 0.095; (ubr1∆) 3.3 ± 0.14.
On to TRDEETTKLAFLVEYEG [SIR4], for which the protein stability index was determined as 3.02 ± 0.14 (doa10∆), 3.06 ± 0.095 (pdr5∆) and 2.96 ± 0.13 (ubr1∆).
As to TRDETVSLIKKYKLISR [YML103C/NUP188], the protein stability index (doa10∆) was 2.48 ± 0.1, the protein stability index (pdr5∆) turned out to be 2.56 ± 0.13, the protein stability index (san1∆) was determined as 2.51 ± 0.11 and the protein stability index (ubr1∆) was 2.41 ± 0.12.
In the same order, the values of TRFKAVVVVGDSNGHVG [RPS2] are 1.87 ± 0.05, 1.96 ± 0.064, 1.84 ± 0.11 and 1.99 ± 0.043.
Consider TRIFQALPRKLRRRTAS [POP1], for which the protein stability index runs as follows: (doa10∆) 2.33 ± 0.07; (pdr5∆) 3.23 ± 0.11; (san1∆) 2.68 ± 0.14; (ubr1∆) 2.73 ± 0.074.
In the same order, the values of TRKGYIPSSKYAYMMNS [YLR018C/POM34] are 3.08 ± 0.11, 2.73 ± 0.12, 2.98 ± 0.21 and 2.65 ± 0.14.
In the same order, the values of TRKSLNNAVRFSKQCLI [ECM29] are 2.15 ± 0.06, 2.96 ± 0.061, 2.42 ± 0.06 and 2.56 ± 0.05.
In the case of TRPISSQVLDLAKKIAP [SMC2], the protein stability index reads like this: (doa10∆) 2.72 ± 0.15; (pdr5∆) 2.44 ± 0.097; (san1∆) 2.59 ± 0.28; (ubr1∆) 1.95 ± 0.14.
In turn, TRTIKQNNFHVLIDLLN [RGR1] yielded a protein stability index (doa10∆) of 1.75 ± 0.079, a protein stability index (pdr5∆) of 1.62 ± 0.13, a protein stability index (san1∆) of 1.87 ± 0.15 and a protein stability index (ubr1∆) of 1.86 ± 0.12.
The sequence TSADLKSKAEELTQVPS [UBP6] displayed a protein stability index (doa10∆) of 3.16 ± 0.21, a protein stability index (pdr5∆) of 3.22 ± 0.12, a protein stability index (san1∆) of 2.79 ± 0.13 and a protein stability index (ubr1∆) of 3.12 ± 0.18.
Regarding TSDNLLTITKAAGANVD [RPP1B], the protein stability index is, setting by setting: (doa10∆) 1.97 ± 0.066; (pdr5∆) 2.13 ± 0.056; (san1∆) 3.05 ± 0.08; (ubr1∆) 2.26 ± 0.082.
Turning to TSDSESTLYKYLKESKR [SWI3], the protein stability index reads like this: (doa10∆) 3.11 ± 0.084; (pdr5∆) 2.66 ± 0.11; (san1∆) 2.89 ± 0.12; (ubr1∆) 2.74 ± 0.054.
As for TSFDRTKKTITPMGGFV [RPL3], the protein stability index is, setting by setting: (doa10∆) 3.04 ± 0.12; (pdr5∆) 3.03 ± 0.12; (san1∆) 2.79 ± 0.089; (ubr1∆) 3.21 ± 0.24.
In the same order, the values of TSGTSSEQFNVWDWNNW [GAL11] are 2.56 ± 0.086, 3.11 ± 0.11, 2.71 ± 0.073 and 2.73 ± 0.096.
The sequence TSIGIKCNDGVVFAVEK [PRE10] gave a protein stability index (san1∆) of 2.61 ± 0.29.
With TSILELGQLYVTMGAKD [RPN6], the protein stability index stood at 3.23 ± 0.11 (doa10∆), 2.85 ± 0.083 (pdr5∆), 2.96 ± 0.071 (san1∆) and 2.96 ± 0.059 (ubr1∆).
